The values that follow are results of earlier work, collected in paper PMC4480918.

Test in all cases: NMR
The test system of one data set is His61. As to conditions: redox state not stated.
For a further data set, the system named is His92. As to conditions: redox state not stated.
A further data set addresses His80 (UniProt position 121, KELYGHTLVWH). As to conditions: free enzyme (not the 2FCb glycosyl-enzyme intermediate).

Turning to “Plastocyanin (A.v. Pc) (Anabaena variabilis)”, the pKa (usually the pH at which an ionisable group is half protonated) in the data set with His61 is 7.1; in the data set on His92 it was 5.1. As to “Catalytic domain of beta-(1,4)-glycosidase Cex (CexCD) (Cellulomonas fimi)”, the pKa with His80 is 7.9.
